Assay results: patent publication US9556236 (UNIVERSITY OF SOUTH FLORIDA, dated 2017)
Positions of bridges follow the written chain, without caps; N, C: chain ends. No end group written: not given here.

B1: HR2-S (peptide)
peptide: FDACISQVNECINQSLAFIRKSDELLHNVNAGKST
modifications: disulfide 4-11
B2: HR2-D (peptide)
peptide: DACISQVNECINQSLAFICKSDELLCNT
modifications: not fully specified (bridges); also: predicted disulfides C3-C10 and C19-C26

Target: RSV fusion (F) protein (respiratory syncytial virus (strains …, UniProt P03420 26-574))
Sequence (P03420 26-574): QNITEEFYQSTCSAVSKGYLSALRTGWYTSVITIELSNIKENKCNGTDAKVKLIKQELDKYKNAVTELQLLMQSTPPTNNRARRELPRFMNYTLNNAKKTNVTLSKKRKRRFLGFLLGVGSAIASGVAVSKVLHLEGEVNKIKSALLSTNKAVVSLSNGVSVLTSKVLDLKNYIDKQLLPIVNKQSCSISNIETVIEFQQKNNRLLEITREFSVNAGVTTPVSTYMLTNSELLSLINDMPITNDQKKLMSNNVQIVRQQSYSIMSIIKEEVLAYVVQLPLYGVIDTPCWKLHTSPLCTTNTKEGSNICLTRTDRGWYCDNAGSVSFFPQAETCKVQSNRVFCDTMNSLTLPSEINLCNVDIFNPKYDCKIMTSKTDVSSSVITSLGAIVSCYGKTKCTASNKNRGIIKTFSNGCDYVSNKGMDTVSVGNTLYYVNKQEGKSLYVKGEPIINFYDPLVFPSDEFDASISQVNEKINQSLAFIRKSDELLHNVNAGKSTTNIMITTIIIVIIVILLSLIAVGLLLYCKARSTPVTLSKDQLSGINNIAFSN
Experiment: cell-based or functional assay

Row | Binder | A2 RSV viral titers, plaque assay (time point not clearly stated) | A2 RSV viral titers, plaque assay on HEp2 cells, 24 h to 96 h pi [fold reduction] | A2 RSV viral titers, plaque assay, 96 h pi | RA2 RSV viral titers, plaque assay (time point not clearly stated) [fold decrease] | RA2 RSV viral titers, plaque assay, 96 h pi | RA2 RSV viral titers, plaque assay on HEp2 cells, 24 h to 96 h pi [fold reduction]
1 | B1 | 0.1 fold decrease | ~0.2 | 0.1 fold decrease | 100 | 20 fold smaller | 
2 | B2 | 100 fold reduction | ≥ 100 | 50000 fold reduction | 100 | 1000 fold less | ≥ 100
